Laboratory results published in publication PMC4900533.

What was measured:
[1] = immunoblot of PNGase F-treated MDCKII lysates, densitometry; conditions: glycan lost; control: wild type
[2] = confocal microscopy, apical marker gp135, MDCKII; conditions: glycan lost; control: wild type

B1: ABCG2: Q596 (protein)
parent chain: MSSSNVEVFIPVSQGNTNGFPATASNDLKAFTEGAVLSFHNICYRVKLKSGFLPCRKPVEKEILSNINGIMKPGLNAILGPTGGGKSSLLDVLAARKDPSGLSGDVLINGAPRPANFKCNSGYVVQDDVVMGTLTVRENLQFSAALRLATTMTNHEKNERINRVIQELGLDKVADSKVGTQFIRGVSGGERKRTSIGMELITDPSILFLDEPTTGLDSSTANAVLLLLKRMSKQGRTIIFSIHQPRYSIFKLFDSLTLLASGRLMFHGPAQEALGYFESAGYHCEAYNNPADFFLDIINGDSTAVALNREEDFKATEIIEPSKQDKPLIEKLAEIYVNSSFYKETKAELHQLSGGEKKKKITVFKEISYTTSFCHQLRWVSKRSFKNLLGNPQASIAQIIVTVVLGLVIGAIYFGLKNDSTGIQNRAGVLFFLTTNQCFSSVSAVELFVVEKKLFIHEYISGYYRVSSYFLGKLLSDLLPMRMLPSIIFTCIVYFMLGLKPKADAFFVMMFTLMMVAYSASSMALAIAAGQSVVSVATLLMTICFVFMMIFSGLLVNLTTIASWLSWLQYFSIPRYGFTALQHNEFLGQNFCPGLNATGNNPCNYATCTGEEYLVKQGIDLSPWGLWKNHVALACMIVIFLTIAYLKLLFLKKYS
expression_or_secretion [1]: decreases | localisation_or_trafficking [2]: no change
